Data on 21 variants can be found in the RNAGym collection of RNA variant scans (doi:10.1073/pnas.2313332121).

B1: TPR t1 (parent)
chain: GACCAAUCUGCCCUCAGAGCUCGAGAACAUCUUCGGAUGCAGAGGAGGCAGGCUUCGGUGGCGCGAUAGCGCCAACGUCCUCAACCUCCAAUGCAUCCCACCACAUGAUGAUGCCUGAAGAGCCUUGGUUUUUUG

This data set covers variants of B1. The experiment in a line: polymerase ribozyme fitness, log enrichment relative to wild type (log ratio); higher = more active; in vitro selection for triplet polymerase activity. An outline of the steps: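 Fitness is a logarithmic measure of how a genotype enriched relative to the wild type, with replicate averages weighted by inverse variance. The logarithm uses base 2, and enrichment came from Illumina sequencing of input and output libraries. Those libraries were PCR-built, transcribed mutants of each subunit of a heterodimeric triplet polymerase ribozyme, passed through one triplicate in vitro selection round that included frozen incubation at −7 °C, gel excision of extended constructs and streptavidin-bead capture. Genotypes were kept only if they had ≥10 input reads and ≥1 read per output.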
On to GACCAAUCUGCCCUCAGUGCUCGAGAACAUCUUCGGAUGCAGAGUAGGCAGGCUUCGGUGGCUCGAUAGCCCCAACGUCCUCAACCUCCAAUGCAUCCCACCACAUGAUCAUGGCUGAAGAGCUUUGGUUUUUUG [A18U G45U G63U G71C G110C C114G C124U], for which the “polymerase ribozyme fitness (log ratio)” value is -7.92.
In the case of GACCAAUCUGCCCUCAGAGCACGAGAAGAUCUUCGGAUGCAGAGGAGGCAGGCUUCAGGGGCGCGAUAGCGCCAACGUCCUCAACCUCCAAUGCAUCCCACCACAUGAUGAUGCCUGAAGAGCUUUGGUAUUUUG [U21A C28G G57A U59G C124U U130A] it was -3.45; in that of GACCAAUCUGCCCUCAGAGCUCGAGAACAUCUUCGGAUGCAGAGGAGGCAGGCUUCGGUGGCUCGAUAGCGCCAACGUCCUCUACCUCCAAUGCAUCCCAGCACAUGAUGAUGCCUGAAGAGCCUUGGUUUUUUG [G63U A83U C101G], -2.97; in that of GACCAAUCUGCCCUCAGAGCUCGAGGACAUCUUCGGAUGCAGAGGAGAGAGGCUUCGGUGGCGCGAUAGCGCCAACGUCCUCAACCUCCAAUGCAUCCCACCACAUGAUGAUGCCUGAAGUGCCUUGGUUUUUUG [A26G G48A C49G A121U], -0.318.
In the case of GACCAAUCUGCCCUCAGAGCUCGAGAACAUCUUCGGAGACAGAGGAGGCAGGCUUCGGUGGCGCGAUAGCGACAACGUCCACAACCUCCAAUGCAUCCCACCACAUGAUGAAGCCUGAAGAGCCUUGGUUUUUUG [U38G G39A C72A U81A U112A], the “polymerase ribozyme fitness (log ratio)” value was -2.71.
In the case of GACCAAUCUGCCCUCGGAGCUCGAGAACAUCUUCGGAUGCAUAGGAGGAAGGCUUUGGUGACGCGAUAGCGCCAACGUCCUCAACCUCCAAUGCAGCCCACCACAUGAGGAUGCCUGAAGAGCCUUGGUUUUUAG [A16G G42U C49A C56U G61A U96G U109G U134A] it was -5.05; in that of GACCAAUCUGCCCUCAGAGCUCGAGAACAUCUUCGGAUGCAGAGGAGGCAGUCUUCGGUGGCGCGAUAGCGCCAACGUCCUCAACCUCCAAUGCAUCCCACCACAUGAUGAUGCCUGAAGAGACUUGGUUUUUUG [G52U C123A], -0.303; in that of GACCAAUCUGCCUUAAGAGCUCGAGAACAUCUUCGGAUGCAGAGGAGGCAGGCUUCGGUAGCGCGAUAGCGCCAACGUCCUCAACCUCCAAUGCAUCCCACCACAUGAUGAUCCCUGAAGAGCCUUGGUUUUUUU [C13U C15A G60A G113C G135U], -7.27.
With GACCAAUCUGCCCUCAGAGCUCGAGAACAUCUUCGGAUGCAGAGGAGGCAGGCUUCGGUGGCUCGAUAGCGCCAACGUCCUCAACCUCCAAUGCAUCCCACCAAAUGAUGAUGCCUGAAGAGCCUUGGUUUUUUG [G63U C104A], the “polymerase ribozyme fitness (log ratio)” value was -2.5.
GACCAAUCUGCCCUCAGAGCUCGAGAACAUCUUCGGAUGCAGAGGAGGCAGGCUUCGGUGGCGCGAUAGUGCCAACGUCCUCAACCUCCAAUCCAUCCCACCACAUGAUGAUGCCUGAAGAGCCUUGGUUUUUUG [C70U G93C]: the “polymerase ribozyme fitness (log ratio)” value was -1.12.
In the case of GACCAAUCUGCCCUCAGAGCUCGAGAACAUCUUCGGAUGCAGAGGAGGCGGCCUUCGGUGGCGCGAUAGCUCCAACGUACUCAACCUCCAAUGCAUCCCACCACAUGAUUAUGCCUGAAGAGCCUUGGUUUUUUG [A50G G52C G71U C79A G110U] it was -4.97.
For GACCAAUCUGCCCUCAGAGCGCGAGAACAUCUUCGGAUGCAGAGGAGGCAGGCUUCGGUGGCGCGAUAGCGCCAACGUCCUCAACCUCCAAUGCAUCCCACCACAUGAUGAUGCCUGAAGAGGCUUGGUUUUUUG [U21G C123G], the “polymerase ribozyme fitness (log ratio)” value stood at 0.364.
For the variant GACCAAUCUGCCGUCAGAGCUCGAGAACAUCUUCGGAUGCAGAGGAGGCAGGCUUCGGUGGCGCGAUAGCGCCAACGUCCUCAAACUCCAAUGCAUCCCACCACAUGAUGACGCCUGAAGAGCCUUGGUUUUUUG [C13G C85A U112C], the “polymerase ribozyme fitness (log ratio)” value is -1.28.
In the case of GACCAAUCUGCCCUCAGAGCUCGAGAACAUCUUCGGAUGGAGAGGAGGCAGGCUUUGGUGGCGCGAUAGCGCCAACGUCCUCAACCUCCACUGCAUCCCACCACAUGAUGAUGCCUGAAGAGCCUUGGUUUUUUG [C40G C56U A91C] it was -2.49.
In the case of GACCAAUCUGCCUUCAGAGCUCGAGAACAUCUUCGGAUGCAGAGGAGGCAGGAUUCGGUGGCGCGAUAGCGACAACGUCCUCAACCUCCAAUGCAUCCCACCUCAUGAUGAUGCCUGAAGAGCCUUUGUUUUUUG [C13U C53A C72A A103U G127U] it was -5.25; in that of GACCAAUCGGCCCUCAGAGCUCGAGAACAUCUUCGGAUGCAGAGGAGGCAGGCUUCGGUGGCGCGAUAGCGCCAACGUCCUCAACCUCCAAUGCCUCCCACCACAUGAUGAUGCCUGAAGAGCCUUGGUUUUUUG [U9G A95C], -1.41.
In the case of GACCAAUCUUCCCUCAGAGCUCGAGAACAUCUUCGGAUGCAGAGGAGGCAGGCUUCGGUGGCGCGAUAGCGCCAACGUCCUCAACCUCCAAUGUAUCCCACCACAUGAUGAUGCCUGAAGAGCCUUGGUUUUUUG [G10U C94U] it was -0.599; in that of GACCAAUCUGCCCUCAGAGCUCGAGAACAUCUUCGGAUGCAGAGGAGGCAGGCUUCGGUGGCGCGAUAGCGCCAACGUCCUCAACCUCCAAUGCAUCCCACCACAUGAUAAUUCCUGAAGAGCCUUGGUUUUUUG [G110A G113U], -5.23.
For the variant GACCAAUCUCCCCACAGAGCUCGAGAACAUCUUCGGAUGCAGAGGAGACAGGCUUCGGUGGCGCGAUAGCGCCAACGUCCUCAACCUCCAAUGCAUCCCACCACAUGAUAAUGCCUGAAGAGCCUUGGUUUUUUG [G10C U14A G48A G110A], the “polymerase ribozyme fitness (log ratio)” value is -3.91.
To GACCAAUCUGCCCUCAGCGUUCGAGAACAUCUUCGGAUGCAGAGGAGGCAGGCUUCGGUGGCGCGAUAGCGCCAACGUCCUCAACCUCCAAUGCAUCCCACCACAUGAUCAUGCCUGAAGAGCCUUGGUUUUUUG [A18C C20U G110C] belongs -6.35; to GACCAAUCUGCCCUCAGAGCUCGAGAACAUCUACGGAUGCAGAGGAGGCAGGCUUCGGUGGCGCGAUAGCGCCAACGUUCUCAACCUCCAAUGAAUCCCACCAUAUGAUGAUGCCUGAAAAGCCUUGGUUUUUUG [U33A C79U C94A C104U G120A], -4.61.
